Biological target: CVA8 virion (strain 14-943/GS/CHN/2014) (coxsackievirus A8 (CVA8), strain GS14)

Binder	neutralization of CVA8 strain GS14 infection of RD cells (cell viability assay) [nM]
hKRM1-Fc (human IgG Fc-fused human KRM1 ectodomain) (Fc fusion) APSPGLGPECFTANGADYRGTQNWTALQGGKPCLFWNETFQHPYNTLKYPNGEGGLGEHNYCRNPDGDVSPWCYVAEHEDGVYWKYCEIPACQMPGNLGCYKDHGNPPPLTGTSKTSNKLTIQTCISFCRSQRFKFAGMESGYACFCGNNPDYWKYGEAASTECNSVCFGDHTQPCGGDGRIILFDTLVGACGGNYSAMSSVVYSPDFPDTYATGRVCYWTIRVPGASHIHFSFPLFDIRDSADMVELLDGYTHRVLARFHGRSRPPLSFNVSLDFVILYFFSDRINQAQGFAVLYQAVKEELPQERPAVNQTVAEVITEQANLSVSAARSSKVLYVITTSPSHPPQTVPG	0.03
mKrm1-Fc (human IgG1 Fc-fused mouse KRM1 ectodomain) (Fc fusion) APGPRSGPECFTANGADYRGTQSWTALQGGKPCLFWNETFQHPYNTLKYPNGEGGLGEHNYCRNPDGDVSPWCYVAEHEDGVYWKYCEIPACQMPGNLGCYKDHGNPPPLTGTSKTSNKLTIQTCISFCRSQRFKFAGMESGYACFCGNNPDYWKHGEAASTECNSVCFGDHTQPCGGDGRIILFDTLVGACGGNYSAMAAVVYSPDFPDTYATGRVCYWTIRVPGASRIHFNFTLFDIRDSADMVELLDGYTHRVLVRLSGRSRPPLSFNVSLDFVILYFFSDRINQAQGFAVLYQATKEEPPQERPAVNQTLAEVITEQANLSVSAAHSSKVLYVITPSPSHPPQTAPG	0.32

Reference: PMC11796367
